Measurements: patent US20240101635A1 (AKSTON BIOSCIENCES, published 2024)

Target: T1, biotinylated recombinant human Fc(gamma) receptor I (human, UniProt P12314 16-288, biotinylated (site not stated))
T1 construct: Bought reagent, used as surrogate for canine/feline Fc(gamma)RI; also called rhFc(gamma) receptor I; Fc(gamma)RI
Assay: ELISA, fusion protein coated, biotinylated rhFc(gamma)RI in solution, pH 7.4
Procedure: (§1) The binding of insulin-Fc fusion proteins to the Fc(gamma) receptor I at pH 7.4 was conducted using an ELISA assay as follows. Since neither canine nor feline Fc(gamma) receptor I was not commercially available, human Fc(gamma) receptor I (i.e., rhFc(gamma) receptor I) was used as a surrogate mammalian receptor. Insulin-Fc compounds were diluted to 10 μg/mL in sodium bicarbonate buffer at pH 9.6 and coated on Maxisorp (Nunc) microtiter plates overnight at 4° C., after which the microplate strips were washed 5 times with PBST (PBS/0.05% Tween-20) buffer and blocked with Superblock blocking reagent (ThermoFisher). Serial dilutions of biotinylated rhFc(gamma) receptor I (recombinant human Fc(gamma)R-I; R&D Systems) were prepared in PBST/10% Superblock buffer from 6000 ng/mL to 8.2 ng/mL and loaded at 100 μL/well onto the microplate strips coated with insulin-Fc fusion protein. The microtiter plate was incubated for 1 hour at room temperature after which the microplate strips were washed 5 times with PBST and then loaded with 100 μL/well of streptavidin-HRP diluted 1:10000 in PBST/10% Superblock buffer. After incubating for 45 min, the microplate strips were washed again 5 times with PBST. TMB was added to reveal the bound Fc(gamma) receptor I proteins and stopped with ELISA stop reagent (Boston Bioproducts). The plate was read in an ELISA plate reader at 450 nm, and the OD values (proportional to the binding of rhFc(gamma) receptor I to insulin-Fc protein) were plotted against log concentrations of rhFc(gamma) receptor I added to each well to generate binding curves using GraphPad Prism software.
Low Fc(gamma) receptor binding is most likely to correlate with minimum immunogenicity.

T1 sequence (P12314 16-288 limits assumed): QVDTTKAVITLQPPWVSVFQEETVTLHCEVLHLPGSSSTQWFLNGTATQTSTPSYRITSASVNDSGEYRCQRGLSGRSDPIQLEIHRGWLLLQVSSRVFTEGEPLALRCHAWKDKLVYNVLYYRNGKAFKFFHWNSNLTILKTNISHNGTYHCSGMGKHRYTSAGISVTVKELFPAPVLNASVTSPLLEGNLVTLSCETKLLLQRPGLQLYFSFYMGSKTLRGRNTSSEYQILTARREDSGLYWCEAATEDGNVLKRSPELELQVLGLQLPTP

OD450 nm Minus Assay Background [OD450] | Ratio to SEQ ID NO: 52 [ratio] | Binder
0.323 | 1 | insulin-Fc fusion protein of SEQ ID NO: 52 (Fc fusion, Homodimer; HEK293, Protein A) FVNQHLCGSDLVEALALVCGERGFFYTDPTGGGPRRGIVEQCCHSICSLYQLENYCNGGGGAGGGGDCPKCPAPEMLGGPSVFIFPPKPKDTLLIARTPEVTCVVVDLDPEDPEVQISWFVDGKQMQTAKTQPREEQFNGTYRVVSVLPIGHQDWLKGKQFTCKVNNKALPSPIERTISKARGQAHQPSVYVLPPSREELSKNTVSLTCLIKDFFPPDIDVEWQSNGQQEPESKYRTTPPQLDEDGSYFLYSKLSVDKSRWQRGDTFICAVMHEALHNHYTQESLSHSPG
– | 0.2 | insulin-Fc fusion protein of SEQ ID NO: 64 (Fc fusion, homodimer; also called cNg-K; cNg-NB139-K) FVNQHLCGSDLVEALALVCGERGFFYTDPTGGGPRRGIVEQCCHSICSLYQLENYCNGGGGAGGGGDCPKCPAPEMLGGPSVFIFPPKPKDTLLIARTPEVTCVVVDLDPEDPEVQISWFVDGKQMQTAKTQPREEQFKGTYRVVSVLPIGHQDWLKGKQFTCKVNNKALPSPIERTISKARGQAHQPSVYVLPPSREELSKNTVSLTCLIKDFFPPDIDVEWQSNGQQEPESKYRTTPPQLDEDGSYFLYSKLSVDKSRWQRGDTFICAVMHEALHNHYTQESLSHSPG

Target: T1, biotinylated recombinant human …
Assay: ELISA, fusion protein coated, biotinylated rhFc(gamma)RI at 3000 ng/mL, pH 7.4
Procedure: as §1
Finally, select compounds were tested for their likelihood to interact with the immune system by measuring their Fc(gamma) receptor binding activity according to the procedure of Example 8. Table 19 compares the Fc(gamma) receptor I binding of these insulin-Fc fusion proteins with the Fc(gamma) receptor binding of the insulin-Fc fusion protein of SEQ ID NO: 52.

Binder | OD450 nm at a Fc(gamma)RI concentration of 3000 (ng/mL) [OD450] | Ratio to SEQ ID NO: 52 [ratio] | OD450 nm Minus Assay Background [OD450]
insulin-Fc fusion protein of SEQ ID NO: 36 (Fc fusion, homodimer; also called cNg-S and B16A) FVNQHLCGSHLVEALALVCGERGFHYGGGGGGSGGGGGIVEQCCTSTCSLDQLENYCGGGGGQGGGGQGGGGQGGGGGDCPKCPAPEMLGGPSVFIFPPKPKDTLLIARTPEVTCVVVDLDPEDPEVQISWFVDGKQMQTAKTQPREEQFSGTYRVVSVLPIGHQDWLKGKQFTCKVNNKALPSPIERTISKARGQAHQPSVYVLPPSREELSKNTVSLTCLIKDFFPPDIDVEWQSNGQQEPESKYRTTPPQLDEDGSYFLYSKLSVDKSRWQRGDTFICAVMHEALHNHYTQESLSHSPG | 0.177 | 0.32 | –
insulin-Fc fusion protein of SEQ ID NO: 104 (Fc fusion, 71% homodimer; also called cNg-NB151-S) FVNQHLCGSHLVEALELVCGERGFHYGGGGGGSGGGGGIVEQCCTSTCSLDQLENYCGGGGGQGGGGQGGGGQGGGGGDCPKCPAPEMLGGPSVFIFPPKPKDTLLIARTPEVTCVVVDLDPEDPEVQISWFVDGKQMQTAKTQPREEQFSGTYRVVSVLPIGHQDWLKGKQFTCKVNNKALPSPIERTISKARGQAHQPSVYVLPPSREELSKNTVSLTCLIKDFFPPDIDVEWQSNGQQEPESKYRTTPPQLDEDGSYFLYSKLSVDKSRWQRGDTFICAVMHEALHNHYTQESLSHSPG | 0.175 | 0.32 | –
insulin-Fc fusion protein of SEQ ID NO: 52 (Fc fusion, Homodimer; HEK293, Protein A) FVNQHLCGSDLVEALALVCGERGFFYTDPTGGGPRRGIVEQCCHSICSLYQLENYCNGGGGAGGGGDCPKCPAPEMLGGPSVFIFPPKPKDTLLIARTPEVTCVVVDLDPEDPEVQISWFVDGKQMQTAKTQPREEQFNGTYRVVSVLPIGHQDWLKGKQFTCKVNNKALPSPIERTISKARGQAHQPSVYVLPPSREELSKNTVSLTCLIKDFFPPDIDVEWQSNGQQEPESKYRTTPPQLDEDGSYFLYSKLSVDKSRWQRGDTFICAVMHEALHNHYTQESLSHSPG | 0.428 | 1 | 0.371

More lines, now with the values ahead:

OD450 nm at a Fc(gamma)RI concentration of 3000 (ng/mL) [OD450] | Ratio to SEQ ID NO: 52 [ratio] | OD450 nm Minus Assay Background [OD450] | Binder
0.253 | 0.53 | – | insulin-Fc fusion protein of SEQ ID NO: 96 (Fc fusion, purified on Protein A or Protein G) FVNQHLCGSHLVEALELVCGERGFHYGGGGGGSGGGGGIVEQCCTSTCSLDQLENYCGGGGGQGGGGQGGGGQGGGGGRCTDTPPCPVPEPLGGPSVLIFPPKPKDILRITRTPEVTCVVLDLGREDPEVQISWFVDGKEVHTAKTQSREQQFNGTYRVVSVLPIEHQDWLTGKEFKCRVNHIDLPSPIERTISKARGRAHKPSVYVLPPSPKELSSSDTVSITCLIKDFYPPDIDVEWQSNGQQEPERKHRMTPPQLDEDGSYFLYSKLSVDKSRWQQGDPFTCAVMHETLQNHYTDLSLSHSPG
0.166 | 0.29 | – | insulin-Fc fusion protein of SEQ ID NO: 102 (Fc fusion, 73% homodimer; also called cNg-NB151-S, NB119-A) FVNQHLCGSHLVEALELVCGERGFHYGGGGGGSGGGGGIVEQCCTSTCSLDQLENYCGGGGGQGGGGQGGGGQGGGGGDCPKCPAPEMLGGPSVFIFPPKPKDTLLIARTPEVTCVVVALDPEDPEVQISWFVDGKQMQTAKTQPREEQFSGTYRVVSVLPIGHQDWLKGKQFTCKVNNKALPSPIERTISKARGQAHQPSVYVLPPSREELSKNTVSLTCLIKDFFPPDIDVEWQSNGQQEPESKYRTTPPQLDEDGSYFLYSKLSVDKSRWQRGDTFICAVMHEALHNHYTQESLSHSPG

Target: T2, human insulin receptor (human, UniProt P06213 28-1382)
T2 construct: whole, on cells; Endogenous receptor on IM-9 cells; also called IR
Assay: competition with biotinylated RHI on IM-9 cells, flow cytometry, 4 C
Procedure: 40 μL of an IM-9 cell suspension (8×10⁶ cells/mL) was then added to each well by multichannel pipette, mixed again gently and incubated on ice for 30 min to allow competitive binding on the insulin receptor on IM-9 cells. Cells were then washed twice with 275 μL of ice-cold FACS wash buffer (HBSS/2 mM EDTA/0.1% Na-azide+0.5% horse serum) by centrifuging the V-bottom plate at 3000 rpm for 3 min and aspirating the supernatant. Cells were then resuspended in 40 μL of FACS staining medium containing 1:100 diluted Streptavidin-PE (Life Technologies) for 20 min on ice. Cells were then washed once with 275 μL of ice-cold FACS buffer and finally fixed with 3% paraformaldehyde for 10 min at room temp. Cells were then washed once with 275 μL of ice-cold FACS buffer and resuspended in 250 μl of FACS buffer for analysis.
The V-bottom plates containing cells were then analyzed on a Guava 8-HT flow cytometer (Millipore). Biotinylated-RHI binding to insulin receptor was quantitated by the median fluorescence intensity (MFI) of the cells on the FACS FL-2 channel for each concentration of the test compound. Control wells were labeled only with biotinylated-RHI and were used to calculate the percent (%) inhibition resulting from each test compound concentration. The % inhibition by test compounds of biotinylated-RHI binding on IM-9 cells was plotted against log concentrations of the test compound, and the resulting IC50 values were calculated using GraphPad Prism (GraphPad Software, La Jolla, CA) for the test compounds. Lower IC50 values of the test compound therefore indicate greater levels of biotinylated-RHI inhibition at lower concentrations indicating stronger binding of the insulin-Fc fusion protein to the insulin receptor. A control compound, such as unlabeled recombinant human insulin (RHI) was also used as an internal standard to generate an RHI IC50 against which a given compound IC50 could be ratioed (IC50(compound)/IC50(RHI)). Lower IC50 ratios have more similar binding to RHI (stronger binding to insulin receptor), while higher IC50 ratios have weaker binding to the insulin receptor relative to RHI.

T2 sequence (P06213 28-1382): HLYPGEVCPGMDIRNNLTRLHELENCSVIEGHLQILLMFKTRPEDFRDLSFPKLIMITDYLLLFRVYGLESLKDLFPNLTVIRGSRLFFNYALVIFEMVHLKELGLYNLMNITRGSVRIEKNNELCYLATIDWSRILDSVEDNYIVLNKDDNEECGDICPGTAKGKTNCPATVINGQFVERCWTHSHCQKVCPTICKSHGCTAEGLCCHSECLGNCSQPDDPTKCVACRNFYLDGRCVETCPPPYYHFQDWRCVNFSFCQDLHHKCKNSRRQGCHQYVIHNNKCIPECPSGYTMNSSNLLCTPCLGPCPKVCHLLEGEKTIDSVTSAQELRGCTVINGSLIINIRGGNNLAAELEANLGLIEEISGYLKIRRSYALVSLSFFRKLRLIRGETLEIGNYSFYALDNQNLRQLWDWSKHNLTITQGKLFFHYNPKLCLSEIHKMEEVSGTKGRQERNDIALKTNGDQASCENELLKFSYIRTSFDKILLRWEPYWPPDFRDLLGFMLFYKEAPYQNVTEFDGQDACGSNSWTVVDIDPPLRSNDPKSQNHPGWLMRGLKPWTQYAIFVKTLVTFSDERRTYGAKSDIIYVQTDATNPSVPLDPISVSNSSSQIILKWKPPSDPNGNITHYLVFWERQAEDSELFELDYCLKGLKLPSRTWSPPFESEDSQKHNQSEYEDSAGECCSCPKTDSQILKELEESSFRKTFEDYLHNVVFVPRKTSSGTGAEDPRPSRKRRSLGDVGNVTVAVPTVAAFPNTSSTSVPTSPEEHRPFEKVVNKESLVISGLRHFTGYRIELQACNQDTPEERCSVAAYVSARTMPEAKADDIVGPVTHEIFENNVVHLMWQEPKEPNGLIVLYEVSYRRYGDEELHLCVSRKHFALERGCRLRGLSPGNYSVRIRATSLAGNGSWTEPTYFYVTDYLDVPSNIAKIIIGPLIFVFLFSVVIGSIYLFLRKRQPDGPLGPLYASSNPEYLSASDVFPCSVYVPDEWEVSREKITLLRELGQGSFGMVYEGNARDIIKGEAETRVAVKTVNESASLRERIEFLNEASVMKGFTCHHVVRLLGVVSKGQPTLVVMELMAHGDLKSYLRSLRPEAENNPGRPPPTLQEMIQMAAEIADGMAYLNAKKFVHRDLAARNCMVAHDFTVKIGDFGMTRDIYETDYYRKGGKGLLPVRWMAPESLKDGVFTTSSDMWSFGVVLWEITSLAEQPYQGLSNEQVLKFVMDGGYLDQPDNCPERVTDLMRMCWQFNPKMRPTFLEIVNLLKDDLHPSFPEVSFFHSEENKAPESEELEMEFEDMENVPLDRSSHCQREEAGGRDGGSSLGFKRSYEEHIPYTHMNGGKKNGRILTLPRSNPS

Binder | IC50 [µM]
insulin-Fc fusion protein of SEQ ID NO: 56 (Fc fusion, only 12% homodimer (aggregated)) FVNQHLCGSDLVEALALVCGERGFFYTDPTGGGPRRGIVEQCCHSICSLYQLENYCNGGGGAGGGGCISPCPVPESLGGPSVFIFPPKPKDILRITRTPEITCVVLDLGREDPEVQISWFVDGKEVHTAKTQPREQQFNSTYRVVSVLPIEHQDWLTGKEFKCRVNHIGLPSPIERTISKARGQAHQPSVYVLPPSPKELSSSDTVTLTCLIKDFFPPEIDVEWQSNGQPEPESKYHTTAPQLDEDGSYFLYSKLSVDKSRWQQGDTFTCAVMHEALQNHYTDLSLSHSPG | > 5
insulin-Fc fusion protein of SEQ ID NO: 52 (Fc fusion, Homodimer; HEK293, Protein A) FVNQHLCGSDLVEALALVCGERGFFYTDPTGGGPRRGIVEQCCHSICSLYQLENYCNGGGGAGGGGDCPKCPAPEMLGGPSVFIFPPKPKDTLLIARTPEVTCVVVDLDPEDPEVQISWFVDGKQMQTAKTQPREEQFNGTYRVVSVLPIGHQDWLKGKQFTCKVNNKALPSPIERTISKARGQAHQPSVYVLPPSREELSKNTVSLTCLIKDFFPPDIDVEWQSNGQQEPESKYRTTPPQLDEDGSYFLYSKLSVDKSRWQRGDTFICAVMHEALHNHYTQESLSHSPG | 0.028

The remaining lines, values ahead:

IC50 [µM] | Binder
> 5 | insulin-Fc fusion protein of SEQ ID NO: 118 (Fc fusion, homodimer) FVNQHLCGSHLVEALALVCGERGFFYTDPAGGGPRRGIVEQCCASVCSLYQLEHYCGGGGAGGGGDCPKCPPPEMLGGPSIFIFPPKPKDTLSISRTPEVTCLVVALGPDDSDVQITWFVDNTQVYTAKTSPREEQFSSTYRVVSVLPILHQDWLKGKEFKCKVNSKSLPSPIERTISKDKGQPHEPQVYVLPPAQEELSRNKVSVTCLIEGFYPSDIAVEWEITGQPEPENNYRTTPPQLDSDGTYFLYSRLSVDRSRWQRGNTYTCSVSHEALHSHHTQKSLTQSPG
0.707 | insulin-Fc fusion protein of SEQ ID NO: 116 (Fc fusion, homodimer) FVNQHLCGSHLVEALALVCGERGFFYTDPAGGGPRRGIVEQCCASVCSLYQLEHYCGGGGAGGGGGEGPKCPVPEIPGAPSVFIFPPKPKDTLSISRTPEVTCLVVDLGPDDSNVQITWFVDNTEMHTAKTRPREEQFSSTYRVVSVLPILHQDWLKGKEFKCKVNSKSLPSAMERTISKAKGQPHEPQVYVLPPTQEELSENKVSVTCLIKGFHPPDIAVEWEITGQPEPENNYQTTPPQLDSDGTYFLYSRLSVDRSHWQRGNTYTCSVSHEALHSHHTQKSLTQSPG
3.48 | insulin-Fc fusion protein of SEQ ID NO: 114 (Fc fusion, homodimer) FVNQHLCGSHLVEALALVCGERGFFYTDPAGGGPRRGIVEQCCASVCSLYQLEHYCGGGGAGGGGGEGPKCPVPEIPGAPSVFIFPPKPKDTLSISRTPEVTCLVVDLGPDDSNVQITWFVDNTEMHTAKTRPREEQFNSTYRVVSVLPILHQDWLKGKEFKCKVNSKSLPSAMERTISKAKGQPHEPQVYVLPPTQEELSENKVSVTCLIKGFHPPDIAVEWEITGQPEPENNYQTTPPQLDSDGTYFLYSRLSVDRSHWQRGNTYTCSVSHEALHSHHTQKSLTQSP
